In the supplement of paper PMC10567573:
± gives the standard deviation.

Assay: protein stability index of a GFP-peptide fusion (GPS, HEK-293T) (PSI 1-6); higher = more stable
Details: c terminus: a fixed tail appended
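Also: 24-mer peptide tiles fused after GFP, lentivirally expressed, FACS-sorted into six equal bins by GFP/DsRed ratio, decoded by Illumina sequencing, PSI is the read-weighted mean bin number.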

Sequence	protein stability index (treatment: DMSO)	protein stability index (treatment: MLN4924 1 uM, 8 h)
DFGLAIEVQGDQQAWFGFAGTPGY [CAMK2B]	2.26 ± 0.35	2.15 ± 0.3
DFIDCVREKGGKVLVHCEAGISRS [DUSP5]	2.77 ± 0.2	2.79 ± 0.41
DGASQDCPPLPAGVSFHIDSAELE [FBXO34]	5.39 ± 0.14	5.4 ± 0.16
DGLREALANLRGLSEEERSEKAML [CCDC89]	4.93 ± 0.22	4.51 ± 0.44
DGSGMPKTMQSEETRVWHRRDGKW [CAMK2D]	4.49 ± 0.35	4.59 ± 0.095
DHGCEQLCLNTEDSFVCQCSEGFL [MATN2]	4.18 ± 0.21	4.06 ± 0.3
DIKKVNNFIREQDLYALKSVKIPV [LYSMD4]	2.38 ± 0.15	2.53 ± 0.4
DKENGENVGLESKYLKKREDSIPL [SASS6]	5.03 ± 0.18	4.76 ± 0.24
DLEAQMESLKEELLSLKQNHEQEV [KRT33B]	4.95 ± 0.32	4.96 ± 0.22
DLMKRLRFALIPAPELVERVQSVD [KLHL14]	2.16 ± 0.14	2.3 ± 0.21
DLVKKIRDFHRKILTLPEMMRMFS [TRIM15]	2.45 ± 0.46	2.35 ± 0.19
DPLSPMTASSLLSFAELFSFMLQD [FEM1C]	2.71 ± 0.49	2.42 ± 0.51
DQEAVCLICAISHTHRAHTVVPLD [TRIM39]	2.22 ± 0.21	2.19 ± 0.35
DRADYYLEEFKENAYKDLAWKHGN [PCMTD2]	3.75 ± 0.084	3.07 ± 0.77
DREEEAIHHLVLTASDGGDPLRSG [PCDHGA10]	5.02 ± 0.2	5.08 ± 0.11
DRTFTLKTVLMIAIQLLSRMEYVH [CSNK1G1]	3.15 ± 0.067	2.65 ± 1.1
DTSFLPDRDREEEENRLREELRQE [FAM50A]	5.17 ± 0.31	5.41 ± 0.18
DVAEGYRKLSLKGHNDWVMDVAIS [WDR88]	2.47 ± 0.31	2.69 ± 0.5

Sequence	protein stability index (treatment: DMSO)	protein stability index (treatment: MLN4924 1 uM, 8 h)
DVAISANIADIEEKRGFTSHFVFV [NCF4]	2.23 ± 0.6	2.55 ± 0.47
DVMLVECYDPKGDQWNILQTPILE [KLHL14]	2.55 ± 0.36	2.64 ± 0.38
DVPNRLVDNIDMIDGDGDDMERFM [BEX5]	4.98 ± 0.18	5.06 ± 0.21
DVPVIPLDVVDNQTEKLDTNITEV [CASP6]	5.19 ± 0.067	5.14 ± 0.3
EAAGVVVEEELFHQQGTPRASNRS [LMNB1]	5.31 ± 0.41	5.47 ± 0.14
EAFKNILTEIYRIVSQKQIADRAA [RAB11B]	2.81 ± 0.4	2.81 ± 0.49
EALNERHSIINALKAKLQMTEAAL [LRRC45]	2.66 ± 0.2	2.91 ± 0.3
EAPALGGGEYQEPGGNVKGVWAPP [BEX5]	4.57 ± 0.37	4.71 ± 0.14
EARICRLLKHPNIVRLHDSISEEG [CAMK2D]	3.56 ± 0.47	3.34 ± 0.28
EAVKYYTLEEIQKHNHSKSTWLIL [CYB5A]	2.44 ± 0.65	2.3 ± 0.24
EAVSDSTPFLTNHGAHKAEKKLFE [ZNF263]	4.65 ± 0.5	4.42 ± 0.41
ECAKAFSRSAILIQHRRTHTDSKY [ZNF396]	2.55 ± 0.21	2.67 ± 0.21
ECGHNFCKACITRWWEDLERDFPC [TRIM39]	2.97 ± 0.49	3.01 ± 0.7
EDDSMSVIEPVVENSGILQGKLIK [EFHC1]	4.89 ± 0.45	5.45 ± 0.25
EDEEEEEGENYQKGERGEDSSEEK [CHGB]	5.622 ± 0.029	5.66 ± 0.21
EDHKPGTFPKALTNGSFSPSGNNG [DLC1]	4.89 ± 0.11	4.91 ± 0.37
EDLEATSEHFKTTSQKVARKFWWK [VAMP8]	4 ± 0.18	3.82 ± 0.25
EDNLEDDDVEMKNGITQGDKLRAL [CDC14A]	5.44 ± 0.26	5.38 ± 0.12
